B1: target 1 insC 3' of 16,insG 3' of 10 (mixed)
RNA 1: CACCCGUGCAAAAAUGCAGGGGUCUAAAACUGAGCGGAUAACCUCUCUAUGG
RNA 2: GGGAAUGGAUCCACAUCUACGAAUUCGUACCAUAGACGAGGUUGAUCCGCUCACCGAGAUCGGAAGAGCACACGU
B2: target 1 insC 3' of 11,insC 3' of 8 (mixed)
RNA 1: B1 RNA 1
RNA 2: B1 RNA 2 with C37G, G38A, A39G, G41U, U42C, G44A, A45U, U46C
B3: target 1 U3C,U11A (mixed)
RNA 1: B1 RNA 1
RNA 2: GGGAAUGGAUCCACAUCUACGAAUUCGUACCAUAGAGAGGAUAUCCGCCCACCGAGAUCGGAAGAGCACACGU
B4: target 1 insU 3' of 14,insC 3' of 13 (mixed)
RNA 1: B1 RNA 1
RNA 2: B1 RNA 2 with C37G, G38A, A39U, G41C, U42G, G44U
B5: target 1 insU 3' of 15,insA 3' of 2 (mixed)
RNA 1: B1 RNA 1
RNA 2: GGGAAUGGAUCCACAUCUACGAAUUCGUACCAUAGAGUAGGUUAUCCGCUCAACCGAGAUCGGAAGAGCACACGU
B6: target 1 insG 3' of 6,insU 3' of 4 (mixed)
RNA 1: B1 RNA 1
RNA 2: B5 RNA 2 with U38A, A39G, G41U, U43A, A44U, U45C, C47G, C51U, A52C
B7: target 1 insU 3' of 13,insU 3' of 5 (mixed)
RNA 1: B1 RNA 1
RNA 2: B5 RNA 2 with U38A, A39G, G40U, C49U, U50C, C51U, A52C
B8: target 1 insU 3' of 15,insU 3' of 1 (mixed)
RNA 1: B1 RNA 1
RNA 2: B5 RNA 2 with A53U
B9: target 1 U8C,U11C (mixed)
RNA 1: B1 RNA 1
RNA 2: B3 RNA 2 with A41C, U44C, C49U
B10: target 1 U11G,G13A (mixed)
RNA 1: B1 RNA 1
RNA 2: B3 RNA 2 with G39A, A41G, C49U
B11: target 1 insC 3' of 11,insG 3' of 6 (mixed)
RNA 1: B1 RNA 1
RNA 2: B5 RNA 2 with U38A, A39G, G41U, U42C, C49G, U50C, C51U, A52C
B12: target 1 insA 3' of 13,insU 3' of 6 (mixed)
RNA 1: B1 RNA 1
RNA 2: B1 RNA 2 with C37G, G38A, A39G, G40A, G44A, A45U, U46C, C48U
B13: target 1 insU 3' of 20,insA 3' of 3 (mixed)
RNA 1: B1 RNA 1
RNA 2: B5 RNA 2 with A34U, G35A, A36G, G37A, U38G, C51A, A52C
B14: target 1 insC 3' of 16,insA 3' of 3 (mixed)
RNA 1: B1 RNA 1
RNA 2: B5 RNA 2 with G37C, U38G, C51A, A52C
B15: target 1 U3G,C6G (mixed)
RNA 1: B1 RNA 1
RNA 2: B3 RNA 2 with A41U, C46G, C49G
B16: target 1 del2,del15 (mixed)
RNA 1: B1 RNA 1
RNA 2: GGGAAUGGAUCCACAUCUACGAAUUCGUACCAUAGAAGGUUAUCCGCUACCGAGAUCGGAAGAGCACACGU
B17: target 1 A14U,G15C (mixed)
RNA 1: B1 RNA 1
RNA 2: B3 RNA 2 with G37C, A38U, A41U, C49U
B18: target 1 U8C,A16G (mixed)
RNA 1: B1 RNA 1
RNA 2: B3 RNA 2 with A36G, A41U, U44C, C49U
B19: target 1 insC 3' of 13,insA 3' of 8 (mixed)
RNA 1: B1 RNA 1
RNA 2: B1 RNA 2 with C37G, G38A, A39G, G40C, G44A, A45U, U46A
B20: target 1 insU 3' of 15,insC 3' of 1 (mixed)
RNA 1: B1 RNA 1
RNA 2: B5 RNA 2 with A53C
B21: target 1 U8C,A9G (mixed)
RNA 1: B1 RNA 1
RNA 2: B3 RNA 2 with A41U, A43G, U44C, C49U
B22: target 1 insG 3' of 10,insG 3' of 2 (mixed)
RNA 1: B1 RNA 1
RNA 2: B5 RNA 2 with U38A, A39G, G41U, U43G, A52G
B23: target 1 U3C,G13A (mixed)
RNA 1: B1 RNA 1
RNA 2: B3 RNA 2 with G39A, A41U
B24: target 1 insC 3' of 13,insU 3' of 7 (mixed)
RNA 1: B1 RNA 1
RNA 2: B1 RNA 2 with C37G, G38A, A39G, G40C, G44A, A45U, U46C, C47U
B25: target 1 A9U,C22A (mixed)
RNA 1: B1 RNA 1
RNA 2: B3 RNA 2 with C30A, A41U, A43U, C49U
B26: target 1 insU 3' of 15,insG 3' of 1 (mixed)
RNA 1: B1 RNA 1
RNA 2: B5 RNA 2 with A53G
B27: target 1 insA 3' of 6,insU 3' of 2 (mixed)
RNA 1: B1 RNA 1
RNA 2: B5 RNA 2 with U38A, A39G, G41U, U43A, A44U, U45C, C47A, A52U

We go through 27 molecules from PMC10786891, “Massively parallel profiling of RNA-targeting CRISPR-Cas13d”.

Residue numbers refer to the chain shown, from its start. In names and notes the source's numbering stands.

This data set deals with T1, EsCas13d, nuclease-dead (Eubacterium siraeum, UniProt B0MS50, R295A;H300A;R849A;H854A).
T1 sequence: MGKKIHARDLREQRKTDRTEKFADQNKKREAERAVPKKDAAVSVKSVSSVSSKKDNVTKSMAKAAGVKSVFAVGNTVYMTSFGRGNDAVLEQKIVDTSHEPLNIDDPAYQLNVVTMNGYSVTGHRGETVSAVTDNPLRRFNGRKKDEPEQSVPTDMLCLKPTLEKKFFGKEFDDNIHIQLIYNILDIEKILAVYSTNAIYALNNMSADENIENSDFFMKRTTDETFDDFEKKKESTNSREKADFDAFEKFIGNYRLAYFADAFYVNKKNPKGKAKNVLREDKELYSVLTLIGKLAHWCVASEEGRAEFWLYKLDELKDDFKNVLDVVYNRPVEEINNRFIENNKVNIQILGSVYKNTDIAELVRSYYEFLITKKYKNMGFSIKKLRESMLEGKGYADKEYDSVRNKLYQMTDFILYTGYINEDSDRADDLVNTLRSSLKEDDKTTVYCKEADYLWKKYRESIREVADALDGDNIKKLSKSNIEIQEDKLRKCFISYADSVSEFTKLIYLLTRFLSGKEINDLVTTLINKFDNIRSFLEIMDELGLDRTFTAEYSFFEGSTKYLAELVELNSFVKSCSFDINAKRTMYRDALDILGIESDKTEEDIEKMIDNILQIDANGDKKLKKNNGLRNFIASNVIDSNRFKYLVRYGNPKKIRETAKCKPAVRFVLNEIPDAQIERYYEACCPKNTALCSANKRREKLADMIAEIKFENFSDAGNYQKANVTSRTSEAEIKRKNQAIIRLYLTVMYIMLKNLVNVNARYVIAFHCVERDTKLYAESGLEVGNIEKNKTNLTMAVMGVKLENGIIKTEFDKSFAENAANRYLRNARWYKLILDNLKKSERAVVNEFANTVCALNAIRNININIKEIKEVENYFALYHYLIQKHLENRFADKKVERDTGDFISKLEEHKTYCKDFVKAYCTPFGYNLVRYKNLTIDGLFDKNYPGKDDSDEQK
As to the kind of experiment: crRNA (strand 1, pre-loaded); Mg2+; 40 mM Tris-HCl pH 7.5, 150 mM NaCl, 6 mM MgCl2, 1 mM DTT, 0.1% Tween-20, 0.2 mg/ml BSA; 25 C; 10 min per concentration, then washed. Conditions: tags: His6-TwinStrep-SUMO cleaved; N-terminal SNAP kept (SNAP-Surface 488); label: 3' end held by stalled T7 RNA polymerase.
As to B1, binding was put at a Kd of 79 ± 15 nM.
The result for B2 reads ~70 nM.
To B3 belongs ~58 nM; to B4, 29 ± 5 nM; to B5, 10.9 ± 1.1 nM.
The result for B6 reads 10.6 ± 0.5 nM; that for B7, 22.4 ± 3.3 nM.
In the case of B8, the Kd came out at 11.2 ± 0.8 nM.
To B9 belongs 12.2 ± 0.6 nM; to B10, 16.6 ± 1.6 nM; to B11, 44 ± 8 nM.
To B12 belongs 4.15 ± 0.3 nM; to B13, 11.3 ± 1.1 nM; to B14, 62 ± 10 nM.
The result for B15 reads 4.32 ± 0.23 nM; that for B16, 42 ± 7 nM; that for B17, ~80 nM.
In turn, B18 registered a Kd of 54 ± 5 nM.
To B19 belongs 16.6 ± 0.6 nM; to B20, 8.8 ± 0.5 nM.
To B21 belongs 13.4 ± 0.6 nM; to B22, 34.6 ± 3.1 nM; to B23, 37 ± 8 nM.
Take B24: the Kd amounted to 25.7 ± 1.8 nM. The Kd values of the last two molecules are within 1.5-fold of each other.
To B25 belongs 16.9 ± 0.9 nM.
Turning to B26, binding was put at a Kd of 11.6 ± 0.7 nM.
To B27 belongs 21 ± 4 nM.
